The DeepSol protein solubility set

Assay: soluble on expression in E. coli; label from the status in PepcDB or PDB records

Sequence | soluble on expression in E. coli
MPIKIPDNLPAKEILTKENIFVMAESRAYSQDIRPLKIVILNLMPIKQTTETQLLRLLGNTPLQVEVSFMYTDTHISKNTSYDHLQTFYQTIDEVKQKKFDGMIITGAPIETLPYDEVDYWNELKQIMEWSKTNVTSTLHICWGAQAGLFYHYGVEKVPLPEKQFGVYPHKINVPNVKLLRGFDDEFYVPHSRHTDINKAQIEAHPDLEILSESEQAGVYIVASKDGKQIFVTGHSEYDACTLQQEYERDRARGLNIQVPENYFPNDDATRKPLLRWRAHSYLLFSNWLNYYVYQETPYDLSRMAGDPLEHHHHHH | soluble
MLKMSTRTEAMSDKQVRAQYTREFKLEAVRQVRAGQAIAGVAKVLGIPKASLGNGVRLAAKGALGGSGGSDKADRVSPEQMEIARLRAEVARLRMERDIAKKAAAYFAQDTLRGTPGLTQLEHHHHHH | not soluble
MGSDKIHHHHHHMDERWMVMKITIVFENHAGYRKGLIGYHGFSALVEANGYRVLVDTGTDGKVLLNNMSELGISPDDIDALFITHGHYDHTGGLRELLSARTEALDIYAHPGIFKRRLALKPKKREIGIPFTREELEELGGKFILSDKSKEILPGFISSGEIERITWDRAVGYFPDGSKDPVRDDMALIVEEGSKSVVITGCGHSGIINIAIHSKKLTNNRIAALIGGFHLKGIERSLLDEAVKKLRELEIEKLYPGHCTGIEEFAYLWSKFGNVEGIHVGKEIKI | not soluble
MKRIGVVLGRREATPLEFWVGVEGDGLLRLDDLVVVEGFHPQVGQVRFFGMVDHVAKVHEGESFDTDTFLAVEGKIPVSLAYVAHVSVTRILPEEFFPPDPGSPVYLAQEEDLELALYYDAMRNQRGSTKLPAGLLKNGEVAYLNLEFLNGVKGGHVNISGISGVAAKTSYATFLLKSLLESGVLEDAHQARVLLFNVKGEDLFFLDKPNARLTEEARKAYARLGLPATPFQSVAFLAPPKKAGYLPDVDTRLEGVEAYHWDLVQFCQRGLLPFLFADRAAMTNLGFLVAHVTEKLKRLAEGQKGPHLQVEDWPGGEASEGMSFDQLGKARLKSFSDLVRYLEYKLLGPETGEGEGDRGWTARQAKGTLEAFVRRLRSSVENVAHLVRGDRPGSPPDPLSGKAQVHVVDLAKLSPQAQMFVVGSLLKDLFERKERGQYRGRVFIVLDELNKYAPREEESPIKDVLLDIAERGRSLGVILIGAQQTASEVERRVVGNAAIRVVGRLDAAEAERPEYRYLPTSFRQRALILPQGAVILHQPEIPVPLLVHFPFPAWATKREEVLEDNSAEALRREFFR | soluble
MSLNTRQLLSVGIDIGTTTTQVIFSRLELVNRAAVSQVPRYEFIKREISWQSPVFFTPVDKQGGLKEAELKTLILEQYHAAGIEPESVDSGAIIITGESAKTRNARPAVMALSQSLGDFVVASAGPHLESVIAGHGAGAQTLSEQRLCRVLNIDIGGGTANYALFDAGKISGTACLNVGGRLLETDSHGRVVYAHKPGQMIVDECFGAGTDARSLTGAQLVQVTRRMAELIVEVIDGTLSPLAQALMQTGLLPAGVTPEIITLSGGVGECYRHQPADPFCFADIGPLLATALHDHPRLREMNVQFPAQTVRATVIGAGAHTLSLSGSTIWLEGVQLPLRNLPVAIPIDETDLVGAWQQALIQLDLDPKTDAYVLALPASLPVRYAAVLTVINALVDFVARFPNPHPLLVVAGQDFGKALGMLLRPQLQQLPLAVIDEVIVRAGDYIDIGTPLFGGSVVPVTVKSLAFPSEGHHHHHH | soluble
MSMSDINKNSELIFIPAPGIGHLASALEFAKLLTNHDKNLYITVFCIKFPGMPFADSYIKSVLASQPQIQLIDLPEVEPPPQELLKSPEFYILTFLESLIPHVKATIKTILSNKVVGLVLDFFCVSMIDVGNEFGIPSYLFLTSNVGFLSLMLSLKNRQIEEVFDDSDRDHQLLNIPGISNQVPSNVLPDACFNKDGGYIAYYKLAERFRDTKGIIVNTFSDLEQSSIDALYDHDEKIPPIYAVGPLLDLKGQPNPKLDQAQHDLILKWLDEQPDKSVVFLCFGSMGVSFGPSQIREIALGLKHSGVRFLWSNSAEKKVFPEGFLEWMELEGKGMICGWAPQVEVLAHKAIGGFVSHCGWNSILESMWFGVPILTWPIYAEQQLNAFRLVKEWGVGLGLRVDYRKGSDVVAAEEIEKGLKDLMDKDSIVHKKVQEMKEMSRNAVVDGGSSLISVGKLIDDITGSN | soluble
MHKLIIKYNKQLKMLNLRDGKTYTISEDERADITLKSLGEVIHLEQNNQGTWQANHTSINKVLVRKGDLDDITLQLYTEADYASFAYPSIQDTMTIGPNAYDDMVIQSLMNAIIIKDFQSIQESQYVRIVHDKNTDVYINYELQEQLTNKAYIGDHIYVEGIWLEVQADGLNVLSQNTVASSLIRLTQEMPHAQADDYNTYHRSPRIIHREPTDDIKIERPPQPIQKNNTLEHHHHHH | soluble
MKKRGLENHPQNRKKIFERFPRLTKLSEKNLFQICKTTLLNERKMKSIQNTIDELRKLSAGKSSEEVQRLKEMQKHSKMFGEIFGVYGATVGKPKPKEKEVKVPTKEMTFEEKRKLLETTFPNKVTPGQRAKARETLNFIANNPEIYAIASPQDPSSKAKTDPVSRPQLNIISSFSWPITSGSDWSPHGSEFNDLTAPRVGKLTPVPQWSDMKKSSLKLGTEDNFSKMSYDPAYSNTTQSQSVTTLYNETSTPYYDDSDLGTPLHTCVQ | not soluble
MGSDKIHHHHHHMKLITVSGPPSSGKTSLIIKTVESLKAQNIKVGIVKFDCLYTDDDILYEKAGILVKKGLSGSVCPDHFFASNIEEVVQWGKTNNLDLLITESAGLCNRCSPYLKDIKAVCVIDNLSGINTPKKIGPMLKLADIVVITKGDIVSQAEREVFASRVQTVNPKAAIIHINGLTGQGTYEFGSLIMDKNEEIDTVIERKLRFPLPSAVCSYCLGETRIGNNYQLGNIRKINFEEQ | not soluble
MDLVDPLAEPCAVCGDKSTGTHYGVISCNGCKGFFRRTVLRDQKFTCRFNKRCVIDKNFRCACRYCRFQKCVQVGMKREAIQFERDPVGSPTSGASLNGTPFKKDRSPGYENGNSNGVGSNGMGQENMRTVPQSSSVIDALMEMEARVNQEMCNRYRRSQIFANGSGGSNGNDTDIQQGSDSGASAFAPPNRPCTTEVDLNEISRTTLLLMVEWAKTINPFMDLSMEDKIILLKNYAPQHLILMPAFRSPDTTRVCLFNNTYMTRDNNTDLNGFAAFKTSNITPRVLDEIVWPMRQLQMREQEFVCLKALAFLHPEAKGLSNSSQIMIRDARNRVLKALYAFILDQMPDDAPTRYGNILLLAPALKALTQLLIENMTLTKFFGLAEVDSLLSEFILDDINDHSTAPVSLQQHLSSPTTLPTNGVSPLNPAGSVGSVSSVSGITPTGMLSATLAAPLAIHPLQSQDSILNSEQNNHML | soluble
MGSDKIHHHHHHLETSPSSSVSGNELLGTATNALVSLNGVYRAMYTAGVSNSSNTHQCFGITAYNLVADVMGEDCIMNGQGSGWFWYDCVYNVKSRYTSTGWRSYDMWNGYYTWISNVNYILAEEETMSGSETEKNYVLGQAYAVRAYSYFMLAQMFSRTYKGHESEPCVPLYTEPTDIATEGKGRATIEEVYQQITSDLDKAITMLGNSGKRKHISHINEAVASGIKARVALVMEDWQTALDAANAAISKSGCSVGTGTAVTGGMNDATANNVMWAAEIIADQSGMYAGFFTHMDADQGKYGASARKQINKLLYAKLGTNDVRKKWWNPQDENNEKNGYQQEKFKFKDYAKWTGDYIFMRIEEMFLTAAEASCRLNDDKGARLMLNSLMQKRDEDYTCKKTGTALGKLTSDETGSLLEEIIIQRRIELWGEFGRIYDIRRLKQGFRRTADMGWPSSALIAGTDTEDPESYAWVLTIPQTEFDGNPNMDPSKDQNPIGDHK | not soluble
RMEMVEIGGIQQALYIRGQNADNPIILWVHGGPGNSMMPFLHLYQYEWENDFTVVNWDQRNVGKTYFANDPAAVLQTMSAERVLQDVHEVTAYLKQEFNKEKIILIGHSWGTVLGTMAVQTYPEDYSAYIGIAQTVNMVDNERVGYEKTLEMVKAAGKQKDIKALEAIAPYPPAKYGPSYLAALMTVRTYQSKYGLSINMDLGNIISILATPYYSLRELKNTAIFNPNAIDNQGDVLRFLVEEADIRNYGVDYQVPVYYIMGENDYNSPYLPAKKFFDEIVAPDKQIFFIPDADHLPFLSKKAEFDCVLLE | not soluble
MGSDKIHHHHHHMHYNDQGADFKYLIVNERDKRFGLSVTTVGFQAIRAGSVYPPRNHPDAYYFTAQKGRVLHEYQLVYITKGRGTFASDTTPSVDISKGQILFLFPGQWHTYAPLQKTGWNEYYIGFEGPIIDNLVKNSFISKESQILDIGINEELASLFARALEVAEADKTAAQQYLSGIVLHIMGAVLAISQNKRYEVDNAAQKIESAKIIMHENVYKDIDPEELAMKLGISYSWFRKVFKEYTGYAPAKYFQELKLRKAKQLLIESSMSVKEICYELNYTSTEHFFSVFKKRTNFTPTEYRNFGRGGKEKENENE | not soluble
MATVDPIRYPIGTFQAPQQFEAGEVQEWIAAIRGLPNDLRTAVSGLNDEQLNTPYRDGGWTVAQVVHHLADASMNAFLRTKWGVTEDGPTVKPFAESEWAKTADACSLPIEPSLLLLDGLHARWAALLESMTEADFHRTVRPEGAAGEMPLYVLTALYAWHGKHHTAQVASLRKRKGW | not soluble
QAVVTQESALTTSPGETVTLTCRSSTGAVTTSNYANWVQEKPDHLFTGLIGGTNKRAPGVPARFSGSLIGDKAALTITGAQTEDEAIYFCALWDSNHLVFGGGTKLTVLGQPKSSPSVTLFPPSSEELETNKATLVCTITDFYPGVVTVDWKVDGTPVTQGMETTQPSKQSNNKYMASSYLTLTARAWERHSSYSCQVTHEGHTVEKSLSPADC | soluble
MNKTELIKNVAQNAEISQKEATVVVQTVVESITNTLAAGEKVQLIGFGTFEVRERAARTGRNPQTGEEMQIAASKVPAFKAGKELKEAVK | soluble
MGSDKIHHHHHHMLATTIGSIAMRRRVSSLVKVRPAGAATQPALGLRVPLVALVQALAVAEHLNFRHAADALGISQSSVSTRIKQLEQDLGVQLFERRHRGVRLTEAGQHFLEHVATGIEHLDHAVRTAGAIARGERGRLRVGLYSSIFAGFLAELLGQFRGQYPTVDLQIMEGRARDTIRAVREARLDVAFVVGVPKVSDCHSKPLWTEALFVALPERHALAEAEGVTWPALSGASFLARTGGPGPQVHDHIVLRLAGHWCQPRIQRFDVERDTLMSMVAQGYGITLTSEAAAQVPFPGVVFRPVLDETELITFSALWSPHNRCQTLLHLLALAEQKSEGRSLGI | not soluble
MSLEKLLPDPDPTFERPYTLCLSLDDLLIHSEWTREHGWRIAKRPGVDYFIRYLSQYYELVLFTTTPYATGEPVMRKLDPFRLILWPLYREATKFEDGEIVKDLSYLNRDLSKVIIIDTKAKHVRNQPDNAIILDPWKGDKDDKNLVNLIPFLEYIHTMQYSDVRKVIKSFDGKDIPTEGHHHHHH | soluble
QQCGQTAPLINERLSYMKDVAGYKAENHLPIEDRIQEEKVINSAMAQAESLGLNGESIKPLMVAQINAAKAIQYRYRADWLSQPEPGWQPKPLDDVRANIGELSTKILEQIAEELKTCKPAEMGDKAHFINTIRQHNLTSADVEAIFSTFNQVKLK | soluble
MAASEAAVVSSPSLKTDTSPVLETAGTVAAMAATPSARAAAAVVAAAARTGSEARVSKAALATKLLSLSGVFAVHKPKGPTSAELLNRLKEKLLAEAGMPSPEWTKRKKQTLKIGHGGTLDSAARGVLVVGIGSGTKMLTSMLSGSKRYTAIGELGKATDTLDSTGRVTEEKPYDKITQEDIEGILQKFTGNIMQVPPLYSALKKDGQRLSTLMKRGEVVEAKPARPVTVYSISLQKFQPPFFTLDVECGGGFYIRSLVSDIGKELSSCANVLELTRTKQGPFTLEEHALPEDKWTIDDIAQSLEHCSSLFPAELALKKSKPESNEQVLSCEYITLNEPKREDDVIKTC | soluble
